# T1: NY-ESO-1 (CTAG1B) peptide on HLA-A*02:01 (human)
# T1 peptide: SLLMWITQC
# T2: NY-ESO-1 (CTAG1B) peptide on HLA-B*07:02 (human)
# T2 peptide: APRGPHGGAASGL
# T3: NY-ESO-1 (CTAG1B) peptide on HLA-B*18:01 (human)
# T3 peptide: LEFYLAMPF
# B1: 9D2 TCR, murinized (murine TCR constant domains) (TCR, V domains shown)
# V domain 1: QKEVEQNSGPLSVPEGAIASLNCTYSDRGSQSFFWYRQYSGKSPELIMFIYSNGDKEDGRFTAQLNKASQYVSLLIRDSQPSDSATYLCAVDDKIIFGKGTRLHILP
# V domain 2: DAGVIQSPRHEVTEMGQEVTLRCKPISGHDYLFWYRQTMMRGLELLIYFNNNVPIDDSGMPEDRFSAKMPNASFSTLKIQPSEPRDSAVYFCASSLGQPSTDTQYFGPGTRLTVLE
# B2: 3A1 TCR, murinized (murine TCR constant domains) (TCR, V domains shown)
# V domain 1: GQQLNQSPQSMFIQEGEDVSMNCTSSSIFNTWLWYKQDPGEGPVLLIALYKAGELTSNGRLTAQFGITRKDSFLNISASIPSDVGIYFCAGFLDSNYQLIWGAGTKLIIKP
# V domain 2: EAQVTQNPRYLITVTGKKLTVTCSQNMNHEYMSWYRQDPGLGLRQIYYSMNVEVTDKGDVPEGYKVSRKEKRNFPLILESPSPNQTSLYFCASASGYRTDTQYFGPGTRLTVLE
# notes: Full-length TCR on transduced Jurkat cells or primary human T cells; Human variable regions with mouse constant regions; also called 3A1 muTCR
# B3: 3A1 TCR (TCR, V domains shown)
# Valpha: B2 V domain 1
# Vbeta: EAQVTQNPRYLITVTGKKLTVTCSQNMNHEYMSWYRQDPGLGLRQIYYSMNVEVTDKGDVPEGYKVSRKEKRNFPLILESPSPNQTSLYFCASASGYRTDTQYFGPGTRLTVL
# B4: 5G6 TCR (TCR, V domains shown)
# Valpha: DAKTTQPNSMESNEEEPVHLPCNHSTISGTDYIHWYRQLPSQGPEYVIHGLTSNVNNRMASLAIAEDRKSSTLILHRATLRDAAVYYCILRTSGAGSYQLTFGKGTKLSVIP
# Vbeta: SAVISQKPSRDICQRGTSLTIQCQVDSQVTMMFWYRQQPGQSLTLIATANQGSEATYESGFVIDKFPISRPNLTFSTLTVSNMSPEDSSIYLCSAGGAGASDTQYFGPGTRLTVL
# B5: 1E4 TCR, murinized (murine TCR constant domains) (TCR, V domains shown)
# V domain 1: KQEVTQIPAALSVPEGENLVLNCSFTDSAIYNLQWFRQDPGKGLTSLLLIQSSQREQTSGRLNASLDKSSGRSTLYIAASQPGDSATYLCAVSTAYSGGGADGLTFGKGTHLIIQP
# V domain 2: DTGVSQNPRHKITKRGQNVTFRCDPISEHNRLYWYRQTLGQGPEFLTYFQNEAQLEKSRLLSDRFSAERPKGSFSTLEIQRTEQGDSAMYLCASSPPTVRVYGYTFGSGTRLTVVE
# B6: 1E4 TCR (TCR, V domains shown)
# Valpha: B5 V domain 1
# Vbeta: DTGVSQNPRHKITKRGQNVTFRCDPISEHNRLYWYRQTLGQGPEFLTYFQNEAQLEKSRLLSDRFSAERPKGSFSTLEIQRTEQGDSAMYLCASSPPTVRVYGYTFGSGTRLTVV
# B7: 2B8 TCR, murinized (murine TCR constant domains) (TCR, V domains shown)
# V domain 1: GQQVMQIPQYQHVQEGEDFTTYCNSSTTLSNIQWYKQRPGGHPVFLIQLVKSGEVKKQKRLTFQFGEAKKNSSLHITATQTTDVGTYFCADPNFGNEKLTFGTGTRLTIIP
# V domain 2: EAQVTQNPRYLITVTGKKLTVTCSQNMNHEYMSWYRQDPGLGLRQIYYSMNVEVTDKGDVPEGYKVSRKEKRNFPLILESPSPNQTSLYFCASSLNPFATNEKLFFGSGTQLSVLE
# B8: 2B8 TCR (TCR, V domains shown)
# Valpha: B7 V domain 1
# Vbeta: EAQVTQNPRYLITVTGKKLTVTCSQNMNHEYMSWYRQDPGLGLRQIYYSMNVEVTDKGDVPEGYKVSRKEKRNFPLILESPSPNQTSLYFCASSLNPFATNEKLFFGSGTQLSVL
# Legend:
# [1] = biological target: T4, HLA-A*02:01/NY-ESO-1 157-165 (…) (Homo sapiens; human); assay: flow cytometry, dextramer MFI on TCR-transduced Jurkat cells
# [2] = biological target: T4, HLA-A*02:01/NY-ESO-1 157-165 (…); assay: flow cytometry, A*02:01/NY157-165 dextramer staining of TCR-transduced human T cells from the blood of NSG mice
# [3] = biological target: T4, HLA-A*02:01/NY-ESO-1 157-165 (…); assay: flow cytometry, dextramer MFI on CD8+ Jurkat against Jurkat cells
# [4] = biological target: T1, NY-ESO-1 (CTAG1B) peptide on HLA-A*02:01; assay: value cited from Robbins et al. 2008 (ref 37); not measured in this filing
# [5] = biological target: T4, HLA-A*02:01/NY-ESO-1 157-165 (…); assay: cell-based or functional assay
# [6] = biological target: T1, NY-ESO-1 (CTAG1B) peptide on HLA-A*02:01; assay: multimer staining
# [7] = biological target: T2, NY-ESO-1 (CTAG1B) peptide on HLA-B*07:02; assay: cytokine release
# [8] = biological target: HLA-B*07:02/NY-ESO-1 60-72 (Homo sapiens; human); assay: cell-based or functional assay
# [9] = biological target: T2, NY-ESO-1 (CTAG1B) peptide on HLA-B*07:02; assay: multimer staining
# [10] = biological target: T1, NY-ESO-1 (CTAG1B) peptide on HLA-A*02:01; assay: cytokine release
# [11] = biological target: HLA-B*18:01/NY-ESO-1 88-96 (Homo sapiens; human); assay: cell-based or functional assay
# [12] = biological target: T3, NY-ESO-1 (CTAG1B) peptide on HLA-B*18:01; assay: multimer staining
molecule,measurement,setting,value
"1G4 TCR, murinized (murine TCR constant domains)","fold increase of the intensity of dextramer binding, muTCR over parental huTCR",[1],1.4 fold
same,percent of transduced T cells dextramer+,[2],90%
same,fold increase of dextramer binding in the presence of CD8,[3],3.8 fold
1G4 TCR,Kd,[4],9.3 µM
B1,IFN-γ secretion of TCR-transduced primary T cells co-incubated with peptide-pulsed A2+ K562 cells; functional sensitivity relative to 4A2,[5],10 fold
B2,fold increase of dextramer binding in the presence of CD8,[3],1.9 fold
B3,binding result,[6],recognises
same,binding result,[7],no recognition
B4,binding result,[6],recognises
B5,IL-2 production of TCR-transduced Jurkat cells co-incubated with cognate target cells; fold increase of murinized over fully human TCR,[8],1.6 fold
B6,binding result,[9],recognises
same,binding result,[10],no recognition
B7,IL-2 production of TCR-transduced Jurkat cells co-incubated with cognate target cells; fold increase of murinized over fully human TCR,[11],18.6 fold
B8,binding result,[12],recognises

# Reference: US20210324035A1 (University of California, published 2021)
